Data published in PMC11533501.

Key:
[1] = molecular target: dynamic microtubules grown from coverslip-anchored biotinylated GMPcPP seeds (bovine brain tubulin) (bovine) (UniProt Q6B856); test: laser trap rupture force assay; kinetochore particles sparsely on anti-His polystyrene beads, attached near the tips of dynamic microtubules grown from coverslip-anchored seeds; preload about 1 pN, then force ramp 0.25 pN/s until detachment; growth buffer (BRB80, 1 mM GTP, tubulin)
[2] = molecular target: dynamic microtubules grown from coverslip-anchored biotinylated GMPcPP seeds (bovine brain tubulin) (bovine) (UniProt Q6B856); test: laser trap bidirectional sliding friction assay; beads decorated sparsely with native kinetochore particles on the sides of coverslip-anchored dynamic microtubules; constant force 0.5-3 pN along the axis, direction reversed periodically; speeds at 1 ± 0.5 pN
[3] = molecular target: dynamic microtubules grown from coverslip-anchored biotinylated GMPcPP seeds (bovine brain tubulin) (bovine) (UniProt Q6B856); test: laser trap bidirectional sliding friction assay; anti-His beads densely coated with recombinant Ndc80c (about 3,000 complexes a bead, not single-molecule conditions) on the sides of coverslip-anchored dynamic microtubules; constant force along the axis, direction reversed; speeds at 1 ± 0.5 pN

| mean rupture strength at microtubule minus ends [1] | mean rupture strength at microtubule plus ends [1] | mean sliding speed of side-attached beads under 1 pN toward the minus end [2] | mean sliding speed of side-attached beads under 1 pN toward the plus end [2] | mean sliding speed of side-attached beads under 1 pN toward the minus end [3] | mean sliding speed of side-attached beads under 1 pN toward the plus end [3] | Substance |
| --- | --- | --- | --- | --- | --- | --- |
| 3.3 pN | 9.7 pN | 674 nm·s^-1 | 109 nm·s^-1 |  |  | native kinetochore particles isolated from yeast (Dsn1-6His-3Flag) (from UniProt P40568 1-576) (complex) |
|  |  |  |  | 464 nm·s^-1 | 130 nm·s^-1 | recombinant human Ndc80 complex (from UniProt O14777 1-642; Q9BZD4 1-464; Q8NBT2 1-197; Q9HBM1 1-224) |
